Key:
[1] = target: blocked scFv having an HRV-3C protease substrate in the peptide linker (H6-MG VH / HL1-TO1 VL), pept; assay: cell-based or functional assay
[2] = target: blocked scFv having a caspase 3 protease substrate in the peptide linker (H6-MG VH / HL1-TO1 VL), peptide construct SEQ ID NO:51, displayed on yeast; assay: cell-based or functional assay

Substance | time to complete activation of MG fluorescence, 10^6 yeast cells with 1 unit of HRV-3C protease at 25 C [1] | time to complete activation of MG fluorescence, 10^6 yeast cells with 1 unit of caspase 3 protease at 25 C [2]
Human Rhinovirus 3C protease (enzyme) | 30 min | 
caspase 3 protease (enzyme) |  | 30 min

Source: US20130177924A1
